Source: US20240199755A1, “ANTAGONISTS AND AGONISTS OF THE TRANSFERRIN RECEPTOR-2 FOR USE IN THE TREATMENT OF DISEASES OF THE BONE” (Kymab Limited, priority 2018, published 2024)

Assays:
BMPs-2, 4, 6 and 7 = test: SPR binding of BMP ligands to Tfr2-ECD immobilized on the sensor chip
Procedure: For this purpose, Tfr2-ECD is immobilized on a Series S Sensor Chip C1 (GE Healthcare), by means of coupling the amino groups at 25° C. The carboxyl groups on the chip surface are activated for 7 minutes using a mixture of 196 mM 1-ethyl-3-(3-dimethylaminopropyl) carbodiimide-hydrochloride and 50 mM n-hydroxysuccinimide at a flow rate of 10 μl/min. Subsequently, 5 μg/ml Tfr2-ECD, diluted with sodium acetate buffer (pH 4.5), is injected at a flow rate of 5 μl/min up to a relative occupancy of 200 RU. Non-reacted groups are inactivated by injecting 1 M thanolamine-HCl (pH 8.5) for 7 minutes at a flow rate of 10 μl/min. In order to prepare a reference surface, the same procedure is carried out but without Tfr2-ECD being injected.
The binding assays are carried out at 37° C. at a flow rate of 30 μl/min. Each analyte is diluted by a running buffer (HBS-P, pH 7.4 together with 50 nM FeCl3). BMPs are used in a concentration of 50 nM and BMP receptors are used in a concentration of 200 nM. The binding assays are carried out by means of analyte injection for 300 s over the Tfr2-ECD surface, followed by dissociation for 1000 s. The values of the binding level are read out, relative to the baseline, 10 s before the end of the injection and are corrected with respect to the molar mass. Following the dissociation for 1000 s, the chip surface is regenerated for 60 s by means of HBS-P together with 5 M NaCl and 50 mM NaOH and is stabilized for 1000 s. The binding parameters are determined using the Biacore™ T100 evaluation software 2.03.
Tfr2-ECD, BMP-2 and BMP-4 were immobilized onto Series S Sensor Chips C1 (GE Healthcare) via its amine groups at 25° C. […]
For binding analysis, an injection of analyte for 240 s or 300 s over a Tfr2-ECD surface was followed by 1000 s dissociation. The values of the binding levels were recorded from referenced signals 10 s before the end of injection relative to baseline response. […]

[1] = system: trauma-induced heterotopic ossification; test: Trauma-potentiated (drop-weight) heterotopic ossification model; format: in vivo; settings: WT mice; after three weeks; Tfr2-ECD single dose, palovarotene or ibuprofen daily
Procedure: For systemic Tfr2-ECD treatment, WT mice were treated every other day with Tfr2-ECD intraperitoneally for two weeks. Mice received 250 μg Tfr2-ECD (10 mg/kg BW) per injection for the first 10 days after BMP-2/matrigel injection into the muscle and 125 μg per injection (5 mg/kg BW) for the remaining time. This experiment was performed once with 8-10 mice per group. Drop-weight HO: This experiment was performed according to Liu et al. with minor modifications^65. Female 10-12-week-old WT mice were anesthetized and placed on a ridge of a plastic container over which the right leg was bent so the femur was lying horizontally. Mice received an injection of 1 μg BMP-2 mixed in 50 μl matrigel. Afterwards, a stainless-steel ball of 16 g (16 mm diameter) was dropped from a distance of 80 cm height onto the quadriceps muscle. Mice either received a single dose of 1 μg Tfr2-ECD, which was co-injected with the BMP-2/matrigel mixture, or palovarotene (Hycultec), which was administered daily by oral gavage. Palovarotene was dissolved in DMSO and diluted 1:4 with corn oil. Mice received palovarotene at a dose of 100 μg/mouse for the first five days and 50 μg/mouse for the remainder of the experiment (days 621). One group of mice received ibuprofen via the drinking water at a dose of […] which was changed every other day^66. […]

B1: Tfr2-ECD: Recombinant full-length extracellular domain (aa 103-798) of murine Tfr2, His-tagged, expressed in Sf9 insect cells (protein, listed as Mus musculus)
chain: RGSCQACGDSVLVVDEDVNPEDSGRTTLYWSDLQAMFLRFLGEGRMEDTIRLTSLRERVAGSARMATLVQDILDKLSRQKLDHVWTDTHYVGLQFPDPAHANTLHWVDADGSVQEQLPLEDPEVYCPYSATGNATGKLVYAHYGRSEDLQDLKAKGVELAGSLLLVRVGITSFAQKVAVAQDFGAQGVLIYPDPSDFSQDPHKPGLSSHQAVYGHVHLGTGDPYTPGFPSFNQTQFPPVESSGLPSIPAQPISADIADQLLRKLTGPVAPQEWKGHLSGSPYRLGPGPDLRLVVNNHRVSTPISNIFACIEGFAEPDHYVVIGAQRDAWGPGAAKSAVGTAILLELVRTFSSMVSNGFRPRRSLLFISWDGGDFGSVGATEWLEGYLSVLHLKAVVYVSLDNSVLGDGKFHAKTSPLLVSLIENILKQVDSPNHSGQTLYEQVALTHPSWDAEVIQPLPMDSSAYSFTAFAGVPAVEFSFMEDDRVYPFLHTKEDTYENLHKMLRGRLPAVVQAVAQLAGQLLIRLSHDHLLPLDFGRYGDVVLRHIGNLNEFSGDLKERGLTLQWVYSARGDYIRAAEKLRKEIYSSERNDERLMRMYNVRIMRVEFYFLSQYVSPADSPFRHIFLGQGDHTLGALVDHLRMLRADGSGAASSRLTAGLGFQESRFRRQLALLTWTLQGAANALSGDVWNIDNNF
modifications: His tag
notes: Recombinant full-length extracellular domain (aa 103-798) of murine Tfr2, His-tagged, expressed in Sf9 insect cells
Binding of BMPs-2, 4 and 6 to Tfr2-ECD at high salt concentrations (BMPs-2, 4, 6 and 7; 500 mM NaCl in running buffer): at a lower level | Binding of BMPs to immobilized Tfr2-ECD compared with holo-transferrin (BMPs-2, 4, 6 and 7; BMP ligands 50 nM, 1 mg/ml holo-Tf): more avidly than holotransferrin | Binding of BMP-2 to Tfr2 relative to that of holo-Tf (BMPs-2, 4, 6 and 7; BMP-2 vs holo-Tf): more than 10 fold | New bone formation in the muscle (trauma-induced HO, μCT) [1]: inhibited new bone formation in the muscle comparable to palovarotene
